These results are taken from article PMC9691700, “CD147 contributes to SARS-CoV-2-induced pulmonary fibrosis” (Signal Transduction and Targeted Therapy, 2022).

This assay concerns the target T1, His-Spike RBD (40592-V08H) (SARS-CoV-2, UniProt P0DTC2 319-541).
T1 construct: source: bought: Sino Biological
Briefly: SPR; Biacore T200, CM5 sensor chip; RBD fixed to the chip by amino coupling; CD147 flowed over; binding time 90 s, dissociation time 120 s. As to conditions: both partners purified.

B1: Human His-CD147 (receptor)
chain: GTVFTTVEDLGSKILLTCSLNDSATEVTGHRWLKGGVVLKEDALPGQKTEFKVDSDDQWGEYSCVFLPEPMGTANIQLHGPPRVKAVKSSEHINEGETAMLVCKSESVPPVTDWAWYKITDSEDKALMNGSESRFFVSSSQGRSELHIENLNMEADPGQYRCNGTSSKGSDQAIITLRVRSHLAAL
notes: CD147 (basigin), human; also called human CD147; hCD147
What is called Kd is a measure of binding affinity in units of concentration. B1 returned a Kd of 4.47 µM.
